These results are taken from patent US20120094909A1 (Bristol-Myers Squibb, published 2012).

Numbering of substitutions follows the chain as printed.

Sequences and labels used below:
B1: 2451H07 (designed binder)
chain: MGITDVPRDLEVVAATPTSLLISWNPPDVNYGYYRITYGETGGNSPLQEFTVPVSKGTATISGLKPGVDYTITVYAVEYPYAHAGYYHRPISINYRTEIDKPSQHHHHHH
B2: 2382B09 (designed binder)
chain: MGVSDVPRDLEVVAATPTSLLISWDAPADAYGYYRITYGETGGNSPVQEFTVPVSKGTATISGLKPGVDYTITVYAVEFDYPGSGYYHRPISINYRTEIDKPSQHHHHHH
notes: Anti-PCSK9 Adnectin, His6-tagged
B3: 2451H07 (designed binder)
chain: B1 chain
notes: as for B2
B4: 2382D09 (designed binder)
chain: B2 chain with D29E, A30G, Y81F, S84A
notes: as for B2
B5: 2382C09 (designed binder)
chain: B2 chain with D29E, A30G, Y81F
notes: as for B2
B6: 2382H10 (designed binder)
chain: B2 chain with D29G, A30G, Y81F
notes: as for B2
B7: 2382B10 (designed binder)
chain: B2 chain with V54S, F79Y, Y81F
notes: as for B2
B8: 2382H09 (designed binder)
chain: B2 chain with D29A, V54S, Y81F
notes: as for B2
B9: 2381B08 (designed binder)
chain: MGVSDVPRDLEVVAATPTSLLISWDAPADGGYGYYRITYGETGGNSPVQEFTVPSSKGTATISGLKPGVDYTITVYAVEYTFPGAGYYHRPISINYRTEIDKPSQHHHHHH
notes: as for B2
B10: 2381G09 (designed binder)
chain: B9 chain with D29G, G30D, S55V, Y80F
notes: as for B2
B11: 2381F11 (designed binder)
chain: B9 chain with S55V, G58S
notes: as for B2
B12: 2381D04 (designed binder)
chain: MGVSDVPRDLEVVAATPTSLLISWEPFSRLPGGGEYYRITYGETGGNSPLQQFTVPGSKGTATISGLKPGVDYTITVYAVEFPYDHSGYYHRPISINYRTEIDKPSQHHHHHH
notes: as for B2
B13: 2381B02 (designed binder)
chain: B12 chain with F82Y, H86Y
notes: as for B2
B14: 2381B04 (designed binder)
chain: B12 chain with F82Y, D85E
notes: as for B2

One test concerns the target T1, human PCSK9 (proprotein convertase subtilisin kexin type 9) (human, UniProt Q8NBP7 31-692).
T1 construct: immobilized directly (ProteOn), biotinylated (Octet) or in solution, according to the assay; also called hPCSK9; PCSK9-AF647 (labelled form)
In words: BLI (Octet Red), 37 C. The protocol:
(§1) Tips were then immersed into a buffer-only well for observation of Adnectin dissociation. Experiments were performed in a temperature controlled environment at either 25 or 37° C., and the oscillation speed was set at 1500 rpm.
(§2) Binding interaction analysis was performed using proprietary software from Fortebio (Fortebio Data Analysis Software version 6.3.0.36). Global fits were performed for all samples, using a 1:1 binding model. The nature of these global fits constrained all values of concentration to a single pair of association and dissociation rates that were themselves constrained to each other. Affinities (KD), association and dissociation rates were averaged over the various loading levels used in the analysis.
(In general: Biolayer interferometry detects binding as a change in optical thickness at a sensor tip.)
B1: binding was put at a Kd of 2.08 nM.

The next test addresses T2, human PCSK9 (proprotein convertase subtilisin kexin type 9) (human, UniProt Q8NBP7 31-692).
T2 construct: Directly immobilized (SPR ProteOn), biotinylated (BLI), or in solution, depending on the assay; also called hPCSK9
Nature of the test: BLI, biotinylated hPCSK9 on sensor tips. The protocol:
as §1, §2
B2 registered a Kd of 0.656 nM, a koff of 0.000291 s⁻¹ and a kon of 451000 M⁻¹ s⁻¹.
The like results for B3 were, in that order, 2.08 nM, 0.00094 s⁻¹ and 448000 M⁻¹ s⁻¹.
B4 displayed a Kd of 0.304 nM, a koff of 0.000164 s⁻¹ and a kon of 533000 M⁻¹ s⁻¹.
Consider B5, for which the affinity, expressed as Kd, was 0.757 nM; the dissociation rate constant (koff) stood at 0.000233 s⁻¹; the kon came out at 349000 M⁻¹ s⁻¹.
Turning to B6, binding was characterised by a dissociation constant (Kd) of 1.4 nM, the koff amounted to 0.000382 s⁻¹ and the kon came to 288000 M⁻¹ s⁻¹.
For B7, binding was characterised by a dissociation constant (Kd) of 2.35 nM, the koff amounted to 0.000977 s⁻¹ and the kon came out at 394000 M⁻¹ s⁻¹.
For the molecule B8, the Kd amounted to 1.86 nM, the koff was 0.000483 s⁻¹ and the kon was determined as 251000 M⁻¹ s⁻¹.
In the case of B9, the affinity, expressed as Kd, was 4.11 nM; the koff was found to be 0.00094 s⁻¹; the kon is 213000 M⁻¹ s⁻¹.
B10 registered a Kd of 1.12 nM, a koff of 0.000291 s⁻¹ and a kon of 271000 M⁻¹ s⁻¹.
For the molecule B11, the Kd is 1.59 nM, the koff was 0.000522 s⁻¹ and the kon is 323000 M⁻¹ s⁻¹.
The molecule B12 came in with a Kd of 0.237 nM, a koff of 6.9e-05 s⁻¹ and a kon of 266000 M⁻¹ s⁻¹.
The molecule B13 showed a Kd of 3.29 nM, a koff of 0.000831 s⁻¹ and a kon of 265000 M⁻¹ s⁻¹.
The like results for B14 were, in that order, 0.527 nM, 0.00016 s⁻¹ and 309000 M⁻¹ s⁻¹.

The next test has as its target T1, human PCSK9 (proprotein convertase …). In words: cell-based or functional assay.
As to B1, the “LDLR Depletion (% inhibition at 75 nM)” value was 88.8%.

The next test shares this target. Nature of the test: PCSK9:EGFA FRET, competitor EGFA peptide.
In the case of B1, a half-maximal effect (EC50) was put at 0.2 nM.

The next test addresses T2, human PCSK9 (proprotein convertase …). In words: BLI Octet Red, 37 C. The protocol:
as §1, §2
Consider B2, for which the Kd came to 0.656 nM.
With B3, the Kd came to 2.08 nM.
On the same count and under the same terms, the value for B4 was 0.304 nM; that for B5 was 0.757 nM; that for B6 was 1.4 nM.
In turn, B7 returned a Kd of 2.35 nM.
Still for that read-out and setting: the value for B8 was 1.86 nM.
In the case of B9, the Kd turned out to be 4.11 nM.
Consider B10, for which the Kd worked out at 1.12 nM.
On to B11, for which the Kd was 1.59 nM.
B12 registered a Kd of 0.237 nM.
Same read-out and setting: the value for B13 was 3.29 nM; that for B14 was 0.527 nM.

The target of a further test is cynomolgus monkey PCSK9 (cynomolgus monkey, UniProt A0A7N9D9N8 150-747). Nature of the test: FRET, competitor EGFA peptide. From the text: (§3) Table 11 summarizes the overall data from these three FRET assays.
Turning to B2, a half-maximal effect (EC50) was put at 37.2 nM.
In the case of B3, the EC50 was determined as 27.1 nM.
Take B4: the EC50 is 13.9 nM.
As for B5, the EC50 came out at 23.9 nM.
B6 had an EC50 of 18.2 nM.
Turning to B7, the EC50 stood at 18.1 nM.
B8 returned an EC50 of 17.9 nM.
Regarding B9, the EC50 came to 27.1 nM.
Molecule B10 registered a half-maximal effective concentration (EC50) of 25.2 nM.
Take B11: the EC50 was 26.5 nM.
As to B12, the EC50 came to 12 nM.
In turn, B13 gave an EC50 of 9.8 nM.
B14 displayed an EC50 of 17.3 nM.

The next test has as its target T2, human PCSK9 (proprotein convertase …). In words: FRET, competitor EGFA peptide.
Description: as §3
In the case of B2, the midpoint of the response, the EC50, lay at 3.8 nM and the IC50 stood at 3.8 nM.
The molecule B3 showed an EC50 of 0.2 nM and an IC50 of 0.2 nM.
Molecule B4 came in with an EC50 of 2.6 nM and an IC50 of 2.6 nM.
As to B5, the EC50 turned out to be 3.5 nM and the IC50 was 3.5 nM.
Consider B6, for which the EC50 amounted to 2.6 nM and the IC50 is 2.6 nM.
In the case of B7, a half-maximal effect (EC50) was put at 3 nM and the IC50 was found to be 3 nM.
On to B8, for which the EC50 was 0.9 nM and the IC50 was determined as 0.9 nM.
As for B9, the EC50 worked out at 2.6 nM and the IC50 was determined as 2.6 nM.
With B10, the EC50 was determined as 3.1 nM and the IC50 stood at 3.1 nM.
Regarding B11, the EC50 was 4 nM and the IC50 was determined as 4 nM.
On to B12, for which it took 2.9 nM to reach a half-maximal effect (EC50) and the IC50 was 2.9 nM.
For B13, the EC50 is 2.5 nM and the IC50 came to 2.5 nM.
Turning to B14, a half-maximal response (EC50) required 2.4 nM and the IC50 turned out to be 2.4 nM.

Another test has the same target. In words: FRET direct binding, anti-his6 antibody.
Description: as §3
B2 had an EC50 of 4 nM.
B3: a half-maximal response (EC50) required 13.2 nM.
Turning to B4, the EC50 was 3.7 nM.
B5 had an EC50 of 2.9 nM.
Still for that read-out and setting: the value for B6 was 4.6 nM; that for B7 was 3.1 nM.
Molecule B8 came in with an EC50 of 3.6 nM.
B9 had an EC50 of 4.1 nM.
For B10, the EC50 came out at 4.5 nM.
B11 gave an EC50 of less than 1 nM.
In turn, B12 yielded an EC50 of 3.7 nM.
In turn, B13 showed an EC50 of 8.4 nM.
On to B14, for which the EC50 worked out at 4.2 nM.

The next test has the same target. In words: FRET, competitor ATI001125.
Description: as §3
Consider B2, for which the IC50 came to 0.6 nM.
B3: the IC50 turned out to be 0.2 nM.
With B4, the IC50 is 0.4 nM.
In the case of B5, the IC50 turned out to be 0.6 nM.
As to B6, the 50% inhibitory concentration (IC50) came out at 0.4 nM.
As to B7, the IC50 stood at 0.5 nM.
On to B8, for which the IC50 came out at 0.3 nM.
For the molecule B9, the IC50 turned out to be 1 nM.
In turn, B10 came in with an IC50 of 1.1 nM.
On the same count and under the same terms, the result for B11 reads 0.8 nM; that for B12, 0.5 nM.
Still for that read-out and setting: the result for B13 reads 0.5 nM; that for B14, 0.5 nM.

Broadly, the Kd is a measure of binding affinity in units of concentration. Usually koff stands for the rate constant with which the complex falls apart. Usually kon stands for a measure of how fast the partners come together. A word on the EC50: it is the midpoint of the concentration-response curve. For orientation: IC50 means the concentration at which inhibition is half-maximal.
